Three molecules from paper PMC5923319 (Toxins, 2018) can be followed below.

Assay [1] addresses HcA1 (receptor binding domain of BoNT/A1), HA- and His6-tagged, for binding studies (Clostridium botulinum, UniProt A2I2U2 876-1296). In words: pull-down. The note with it: both partners purified.
Assay [2] addresses HcA2 (receptor binding domain of BoNT/A2), HA- and His6-tagged, for binding studies (Clostridium botulinum A2 Kyoto-F, UniProt Q45894 874-1296). In words: […]; Hepes buffer (50 mM Hepes pH 7.5, 150 mM NaCl); […]. The conditions noted are these: both partners purified.

B1: GST-fused recombinant human SV2C-L4 (domain or fragment, UniProt Q496J9 454-580, looked up)
chain: FPDVIKPLQSDEYALLTRNVERDKYANFTINFTMENQIHTGMEYDNGRFIGVKFKSVTFKDSVFKSCTFEDVTSVNTYFKNCTFIDTVFDNTDFEPYKFIDSEFKNCSFFHNKTGCQITFDDDYSAY
notes: also called non-glycosylated SV2C
With B1, the binding result in assay [1] and in assay [2] was “binds” throughout.

B2: GST-fused recombinant human SV2A-L4 (domain or fragment, UniProt Q7L0J3 468-596, looked up)
chain: FPDMIRHLQAVDYASRTKVFPGERVEHVTFNFTLENQIHRGGQYFNDKFIGLRLKSVSFEDSLFEECYFEDVTSSNTFFRNCTFINTVFYNTDLFEYKFVNSRLINSTFLHNKEGCPLDVTGTGEGAYM
notes: also called non-glycosylated SV2A
Consider B2, for which the binding result in assay [1] is “binds”.

B3: GST-fused recombinant human SV2B-L4 (domain or fragment, UniProt Q7L1I2 410-536, looked up)
chain: WFPDMIRYFQDEEYKSKMKVFFGEHVYGATINFTMENQIHQHGKLVNDKFTRMYFKHVLFEDTFFDECYFEDVTSTDTYFKNCTIESTIFYNTDLYEHKFINCRFINSTFLEQKEGCHMDLEQDNDF
notes: also called non-glycosylated SV2B
Consider B3, for which the binding result in assay [1] is “binds”.
